The chains are these.
B1: CPEB3 Ribozyme (parent)
chain: GGGGGCCACAGCAGAAGCGUUCACGUCGCGGCCCCUGUCAGAUUCUGGUGAAUCUGCGAAUUCUGCUGU

In this data set the parent is B1. Description: self-cleavage, relative activity (ratio to wild type); higher = more cleavage; co-transcriptional.
For the variant C34U U64C, the self-cleavage is 0.971.
For C34U U64G, the self-cleavage turned out to be 0.928.
To C34U A42U belongs 0.924.
In the case of C34U A42C, the self-cleavage came out at 0.843.
As to C34U A42G, the self-cleavage worked out at 0.932.
Consider C34U G48U, for which the self-cleavage worked out at 0.983.
To C34U U53G belongs 0.728.
With C34U U53C, the self-cleavage amounted to 0.943.
As for C34G U67C, the self-cleavage came to 0.766.
With C34G U67G, the self-cleavage came to 0.894.
For C35A G37A, the self-cleavage amounted to 0.221.
As to C35A G37U, the self-cleavage was found to be 0.237.
For C35A G37C, the self-cleavage was determined as 0.254.
Take C35A U43G: the self-cleavage amounted to 0.227.
As to C35A U43C, the self-cleavage stood at 0.264.
For the variant C35A U43A, the self-cleavage stood at 0.185.
With C34U U46C, the self-cleavage came out at 0.977.
With C34U U46G, the self-cleavage was 0.988.
With C34U U46A, the self-cleavage is 1.
For C35A A42U, the self-cleavage was determined as 0.19.
For the variant C35A A42G, the self-cleavage is 0.281.
With C35A A42C, the self-cleavage was determined as 0.229.
In the case of C34G U69C, the self-cleavage was 0.971.
In the case of C34G U69A, the self-cleavage was 0.886.
For C34U, the self-cleavage was 0.991.
C35A C63A: the self-cleavage turned out to be 0.276.
To C35G A42G belongs 0.503; to C35G A42U, 0.308; to C34U U61G, 0.711.
On to C34U U61A, for which the self-cleavage worked out at 0.952.
For C34U C54A, the self-cleavage stood at 0.809.
On to C34U C54G, for which the self-cleavage came to 0.819.
As to C34U C54U, the self-cleavage is 0.985.
To C34U U43G belongs 0.708; to C35A U49A, 0.303; to C35A U49C, 0.342.
To C35A U49G belongs 0.26.
On to C35A U53G, for which the self-cleavage turned out to be 0.24.
In the case of C35A U53A, the self-cleavage came to 0.266.
C35A U53C: the self-cleavage worked out at 0.225.
On to C35A A59U, for which the self-cleavage was 0.227.
As for C35A A59G, the self-cleavage is 0.34.
In the case of C35A A59C, the self-cleavage turned out to be 0.204.
C35A A52C: the self-cleavage turned out to be 0.316.
To C35A A52G belongs 0.247.
As for C35A U44C, the self-cleavage came out at 0.277.
As for C35G A60C, the self-cleavage amounted to 0.348.
C34U G56A: the self-cleavage came out at 0.955.
Turning to C34U G56C, the self-cleavage came out at 0.792.
As to C34U G56U, the self-cleavage amounted to 0.975.
With C35A C39U, the self-cleavage came to 0.183.
In the case of C35A C39G, the self-cleavage turned out to be 0.3.
To C34U A60G belongs 0.789; to C34U A60U, 0.452; to C34U A60C, 0.371.
To C35A U64G belongs 0.318.
Then C35A U64C, with 0.276; and C35A U64A, with 0.205.
As to C34U A52U, the self-cleavage turned out to be 0.975.
Regarding C34U A52C, the self-cleavage is 0.958.
For the variant C35G A59U, the self-cleavage is 0.254.
In the case of C35G A52U, the self-cleavage was 0.474.
As to C35G A52C, the self-cleavage stood at 0.433.
Regarding C34U U44G, the self-cleavage was determined as 0.859.
As to C34U U44A, the self-cleavage came out at 0.963.
Then C34U U44C, with 0.938; and C34U C45U, with 1.03.
To C34U C45G belongs 0.992.
Turning to C35A G56U, the self-cleavage worked out at 0.223.
For the variant C35A G56C, the self-cleavage came out at 0.253.
Consider C35A G56A, for which the self-cleavage worked out at 0.218.
On to C34U U55G, for which the self-cleavage was determined as 0.84.
Regarding C34U U55A, the self-cleavage worked out at 0.925.
To C34U C66U belongs 0.977.
Consider C34U C66A, for which the self-cleavage turned out to be 0.973.
In the case of C34U G50C, the self-cleavage turned out to be 0.999.
As for C34U G50A, the self-cleavage came out at 1.03.
For the variant C34U C63G, the self-cleavage was 0.78.
Regarding C35A G68U, the self-cleavage came to 0.394.
For the variant C35A G68C, the self-cleavage was 0.345.
As to C34G U62G, the self-cleavage amounted to 0.477.
For C34G U62C, the self-cleavage stood at 0.316.
As for C34G U62A, the self-cleavage is 0.453.
For the variant C35A G50U, the self-cleavage was 0.287.
Consider C35A A51C, for which the self-cleavage is 0.255.
As for C35A A51G, the self-cleavage came out at 0.234.
To C35A G47A belongs 0.292; to C35A G47C, 0.189.
As to C35A G47U, the self-cleavage turned out to be 0.259.
To C34U A59G belongs 0.899.
Then C34U A59C, with 0.661; and C35A G58U, with 0.286; and C34U G37U, with 0.247.
For C34U G37C, the self-cleavage was 0.226.
With C35A G65U, the self-cleavage worked out at 0.184.
Take C35A G65A: the self-cleavage was 0.299.
To C35G A51C belongs 0.426; to C35G A51G, 0.461; to C35G A51U, 0.445.
With C35A U69C, the self-cleavage worked out at 0.417.
To C35A U69A belongs 0.358.
For C34U C57A, the self-cleavage turned out to be 0.315.
As to C34U C57U, the self-cleavage was 0.385.
C35A U62G: the self-cleavage came out at 0.21.
C35A U62C: the self-cleavage stood at 0.242.
As to C35A U62A, the self-cleavage worked out at 0.306.
Then C35A U38C, with 0.256; and C35A U38A, with 0.279.
Regarding C35A U46A, the self-cleavage came out at 0.268.
Then C35A U46G, with 0.356; and C35A U61A, with 0.231.
Then C35A U61G, with 0.288; and C35A U55G, with 0.196.
Then C35A U55A, with 0.244.
On to C35A U55C, for which the self-cleavage is 0.357.
In the case of C34U G65A, the self-cleavage was 0.919.
As for C34U G65C, the self-cleavage amounted to 0.682.
C34U A51C: the self-cleavage amounted to 0.985.
As for C34U A51U, the self-cleavage came out at 0.957.
On to C34U A51G, for which the self-cleavage turned out to be 1.01.
With C35A C57U, the self-cleavage came out at 0.191.
In the case of C34U G47A, the self-cleavage was 0.958.
As for C34U G47U, the self-cleavage amounted to 0.995.
To C34U G47C belongs 0.968; to C35A C66U, 0.259; to C35A C66G, 0.294.
Take C35A C66A: the self-cleavage turned out to be 0.22.
Regarding C34U C39G, the self-cleavage turned out to be 0.973.
As to C34U C39A, the self-cleavage stood at 0.834.
Then C34U C39U, with 0.943; and C34U G41A, with 0.828.
Turning to C34U G68C, the self-cleavage came out at 0.962.
As to C34U G68A, the self-cleavage was determined as 1.01.
Then C34G U64C, with 0.402; and C34G U64A, with 0.384.
C34G U64G: the self-cleavage is 0.35.
To C35A G48U belongs 0.249; to C35A U36C, 0.245.
As for C35A U36G, the self-cleavage amounted to 0.232.
As for C35A U67C, the self-cleavage amounted to 0.324.
To C35G A40U belongs 0.261; to C35G A40C, 0.225.
In the case of C35G A40G, the self-cleavage came to 0.394.
On to C35A C54U, for which the self-cleavage was 0.252.
To C35A C54A belongs 0.315.
With C34U U36C, the self-cleavage was determined as 0.922.
To C34U U36G belongs 0.256; to C34U U69A, 1.01; to C34U U69C, 1.07.
For C34U U69G, the self-cleavage was 1.04.
Consider C35A G41A, for which the self-cleavage turned out to be 0.264.
For C35A G41U, the self-cleavage amounted to 0.277.
Take C34U U67G: the self-cleavage was determined as 0.982.
To C35A A60C belongs 0.193.
For the variant C35A A60G, the self-cleavage amounted to 0.24.
C34U C35U: the self-cleavage was 0.736.
Consider C34U C35G, for which the self-cleavage came out at 0.313.
Turning to C34U C35A, the self-cleavage came out at 0.194.
Take C34U U49C: the self-cleavage was determined as 0.998.
Then C34U U49G, with 0.985.
Then C34U U49A, with 0.996; and C34G U61C, with 0.423.
Then C34U A40U, with 0.838.
In the case of C34U A40C, the self-cleavage was found to be 0.602.
Regarding C34U A40G, the self-cleavage worked out at 0.963.
Then C34U U62A, with 0.921; and C34U U62G, with 0.892.
